Measurements reported in publication PMC9524465 (ACS catalysis, 2021).

Target: the molecule itself
Experiment: crystal structure

B1: [3SCC-(I9H)3] artificial copper peptide (ArCuP), de novo designed trimeric coiled coil peptide (peptide)
chain: GIAAIKQEHAAIKQEIAAIKQEIAAIKWEG
modifications: not fully specified; acetylated N-terminal Gly (Ac-); amidated C-terminal Gly (-CONH2)
Q: With B1 as the protein, how does the “stoichiometry N” value read?
A: The value was 3.
